Assay results from patent US20220056140A1 (INVECTYS, published 2022).

Tests used:
[1] = target: T1, HLA-G5 recombinant protein (without β2M association) (human, UniProt P17693-5 25-319); assay: flow cytometry titration on β2M-free HLA-G5 coated Bioplex beads
T1 construct: domain: α1α2α3 domains of HLA-G5; No β2M; Coupled to Bioplex beads; also called hβ2M-free HLA-G5; recombinant HLA-G5 protein
Experimental: (§1) The binding detection was carried out by flow cytometry using a PE-conjugated goat anti-mouse antibody. […] Measurements were performed in triplicate (n=3); error bars indicate SD.
(§2) Flow cytometry analyses were performed using LSR FORTESSA (Beckton Dickinson, Le Pont-de-Claix, France); data were analyzed with FlowJo X software (Tree star, Ashland, USA).

Control peptide = target: T2, Control peptide; assay: flow cytometry on Bioplex beads coated with the mutated peptide, PE-conjugated goat anti-mouse antibody
T2 peptide: CTHHPVADAEATLRC
Experimental: as §1
As specificity (negative) controls, uncoupled beads or beads coated with a mutated peptide [sequence]

[2] = target: HLA-G6 recombinant protein (without β2M association) (human, UniProt P17693 25-227); assay: flow cytometry titration on HLA-G6 coated Bioplex beads
Experimental: as §1, §2

B1: anti-HLA-G monoclonal antibody 15E7 (antibody, V domains shown)
VH: QVQLQQPGAELVRPGSSVKLSCKASGYTFTDYWMDWVKQRPGQGLEWIGTIYPSDSSTHYNQEFKGKATMTVDKSSSTAYMHLSSLTSEDSAVYYCAREGLAGVFYFDYWGQGTTLTVSS
VL: DVLMTQIPFSLPVSLGDQASISCRSSQSIVHRSGNTYLEWYLQKPGQSPKLLIYKVSNRFSGVPDRFSGSGSGTDFTLKISRVEAEDLGVYYCFQGSHLPPTFGGTTLEIK
notes: also called 15E7 mAb; 15E7 Mab
EC50 [1]: 0.028 µg/mL | binding result (Control peptide): no binding (tested: 250 ng/ml) | EC50 [2]: 0.12 µg/mL
